US20120328512A1 (BRACCO IMAGING S P A, published 2012)
Bridge positions count the residues as written; N and C are the ends. Square brackets hold non-standard residues; d marks the D form. Cha = N[C@@H](CC1CCCCC1)C(=O)O; CF5 = 5-carboxyfluorescein; AEEA = NCCOCCOCC(=O)O

T1: DDE
T1 chain 1: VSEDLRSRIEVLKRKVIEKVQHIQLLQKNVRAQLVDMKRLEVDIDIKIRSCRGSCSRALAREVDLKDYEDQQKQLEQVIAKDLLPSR
T1 chain 2: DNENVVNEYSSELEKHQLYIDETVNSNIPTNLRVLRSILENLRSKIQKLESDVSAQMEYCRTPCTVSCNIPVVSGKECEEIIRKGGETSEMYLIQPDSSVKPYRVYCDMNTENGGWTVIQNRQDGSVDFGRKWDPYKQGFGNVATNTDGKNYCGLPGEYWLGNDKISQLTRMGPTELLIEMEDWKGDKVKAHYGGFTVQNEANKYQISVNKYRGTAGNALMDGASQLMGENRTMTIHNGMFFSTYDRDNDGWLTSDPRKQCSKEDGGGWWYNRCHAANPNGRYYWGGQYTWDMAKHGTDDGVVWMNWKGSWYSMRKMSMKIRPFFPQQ
T1 chain 3: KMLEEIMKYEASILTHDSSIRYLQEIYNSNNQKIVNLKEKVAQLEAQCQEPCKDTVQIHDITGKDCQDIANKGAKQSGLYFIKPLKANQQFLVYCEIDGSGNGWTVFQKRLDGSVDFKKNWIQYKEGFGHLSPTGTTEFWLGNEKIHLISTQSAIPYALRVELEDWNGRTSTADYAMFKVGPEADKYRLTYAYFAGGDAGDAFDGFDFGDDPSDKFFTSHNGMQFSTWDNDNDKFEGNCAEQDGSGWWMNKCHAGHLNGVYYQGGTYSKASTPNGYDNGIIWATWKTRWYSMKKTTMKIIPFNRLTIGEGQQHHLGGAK
T1 chain 4: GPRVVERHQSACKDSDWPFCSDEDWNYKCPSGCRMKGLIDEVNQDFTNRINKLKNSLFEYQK
T1 chain 5: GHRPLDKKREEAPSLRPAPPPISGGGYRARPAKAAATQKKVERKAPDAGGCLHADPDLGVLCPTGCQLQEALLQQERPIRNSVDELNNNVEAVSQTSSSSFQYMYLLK
T1 chain 6: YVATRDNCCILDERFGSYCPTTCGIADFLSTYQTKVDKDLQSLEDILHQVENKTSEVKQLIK


Target: T1, DDE
Test: competition fluorescence polarization: unlabeled peptide against Seq000-CF5 tracer on DDE; n = 2

Binder | Rel IC50
H-RGWQPCPWESWTFCWDPGGGK-NH2 (disulfide 6-14) [Seq022-P] | 0.511 ratio to the reference peptide
H-RWQPCPWESWTFCWDPGGGK-NH2 (disulfide 5-13) [Seq023-P] | 0.47 ratio to the reference peptide
Ac-SGSGSGSGWQPCPWESWTFCWDPGGGK-NH2 (disulfide 12-20) [Seq024-P] | 0.527 ratio to the reference peptide
Ac-KKGWQPCPWESWTFCWDPGGGK-NH2 (disulfide 7-15) [Seq025-P] | 0.357 ratio to the reference peptide
Ac-KGKGKGWQPCPWESWTFCWDPGGGK-NH2 (disulfide 10-18) [Seq026-P] | 0.595 ratio to the reference peptide
Ac-RRGGWQPCPWESWTFCWDPGGGK-NH2 (disulfide 8-16; SMILES CC(=O)N[C@@H](CCCNC(=N)N)C(=O)N[C@@H](CCCNC(=N)N)C(=O)NCC(=O)NCC(=O)N[C@@H](Cc1c[nH]c2ccccc12)C(=O)N[C@@H](CCC(N)=O)C(=O)N1CCC[C@H]1C(=O)N[C@H]1CSSC[C@@H](C(=O)N[C@@H](Cc2c[nH]c3ccccc23)C(=O)N[C@@H](CC(=O)O)C(=O)N2CCC[C@H]2C(=O)NCC(=O)NCC(=O)NCC(=O)N[C@@H](CCCCN)C(N)=O)NC(=O)[C@H](Cc2ccccc2)NC(=O)[C@H]([C@@H](C)O)NC(=O)[C@H](Cc2c[nH]c3ccccc23)NC(=O)[C@H](CO)NC(=O)[C@H](CCC(=O)O)NC(=O)[C@H](Cc2c[nH]c3ccccc23)NC(=O)[C@@H]2CCCN2C1=O) [Seq029-P] | 0.125 ratio to the reference peptide

Target: T1, DDE
Test: direct binding fluorescence polarization: CF5-labeled peptide titrated with DDE; n = 2

Binder | Kd
Ac-KKGWQPCPWESWTFCWDPGGGK(CF5)-NH2 (disulfide 7-15) [Seq025-CF5] | 0.71 µM
Ac-KGKGKGWQPCPWESWTFCWDPGGGK(CF5)-NH2 (disulfide 10-18) [Seq026-CF5] | 0.76 µM
Ac-GPPGWQPCPAESWTFCWDPGGGK(CF5)-NH2 (disulfide 8-16) [Seq034-CF5] | 0.31 µM
Ac-GGRGWQPCPAESWTFCWDPGGGK(CF5)-NH2 (disulfide 8-16) [Seq035-CF5] | 0.52 µM
Ac-SGSGSGSGWQPCPAESWTFCWDPGGGK(CF5)-NH2 (disulfide 12-20) [Seq040-CF5] | 0.53 µM
Ac-WQPCPAESWT[Cha]CWDPGGGK(CF5)-NH2 (disulfide 4-12, also called Ac-WQPC*PAESWT-Cha-C*WDPGGGK(CF5)-NH2) [Seq042-CF5] | 0.17 µM
Ac-SGSG[AEEA]WQPCPAESWTFCWDPGGGK(CF5)-NH2 (disulfide 9-17) [Seq045-CF5] | 0.57 µM
Ac-RRGGWQPCPAESWTFCWDPGGGK(CF5)-NH2 (disulfide 8-16) [Seq046-CF5] | 0.22 µM
